Source: US20260248947A1, “Methods of Treating Cancer Using Anti-HER2 Antibody-Drug Conjugates and HER2 Kinase Inhibitors” (Seagen Inc., priority 2023, published 2026)

Columns and labels:
HER2 [1] = molecular target: T1, HER2 (Homo sapiens, UniProt P04626); assay: Internalization assay of Fabfluor-labeled disitamab with or without tucatinib (IncuCyte); assay type: cell-based; set-up: endogenous in cells; host or cells: SK-BR-3, BT-474, HCC-202, EFM-192C, NCI-N87, OE19; conditions: 100 nM tucatinib
Method: (§1) The internalization experiments were conducted by detecting an antibody-bound pH sensitive probe using automated time-lapse microscopy. Briefly, breast cancer cell lines SK-BR-3, BT-474, HCC-202, and EFM-192C and gastric cancer cell lines NCI-N87 and OE19 were seeded in 96-well flat clear-bottom black tissue culture-treated microplates (Coming, cat #3603). Cells were plated at 1.5×10^4-2.5×10^4 cells/200 μL/well in growth medium and allowed to adhere overnight at 37° C. Disitamab and isotype control antibody (human IgG) were labeled with IncuCyte Fabfluor-pH Red Antibody Labeling Reagent (Essen Bioscience, cat #4722) according to the manufacturer's protocol. Volumes of the test antibodies, Fabfluor reagent and medium required were calculated at 2× the final assay concentration, and the Fabfluor reagent was added at a molar ratio of 1:3 to the antibody. Antibody and Fabfluor were mixed gently and incubated at 37° C. for 15 minutes. Media containing Fabluor-labeled disitamab ([…] final concentration) with or without tucatinib (100 nM final concentration) was added to cells. The plates were arranged on microplate trays in the IncuCyte SX3 system (Essen Bioscience), and scans were acquired using the Standard protocol. Phase data and red channel data (acquisition time set to 400 ms) were collected, with 4 images per well every 30 minutes for the first 6 hours and every 2 hours after that for up to 72.5 hours with the objective set at 10×. Quantification of fluorescence signal intensity was performed using the IncuCyte software analysis tool. Cell surface HER2 density was quantified using qFACS analysis as described supra.
The analysis was refined and tuned per cell line utilizing phase area confluence and manual image selection for preview and training of the algorithm. Upon completion of the analysis, red object integrated intensity (RCU×μm^2/image) data were graphed using GraphPad Prism. The experiment was performed in duplicate (technical replicates) for two biological replicates.

HER2 [2] = molecular target: T1, HER2; assay: Internalization assay of Fabfluor-labeled disitamab compared to trastuzumab (IncuCyte); assay type: cell-based; set-up: endogenous in cells; host or cells: SK-BR-3, BT-474, HCC-202, EFM-192C, BT-483, CAMA-1, NCI-N87, OE19, RERF-GC-1B
Method: The internalization experiments were conducted by detecting an antibody-bound pH sensitive probe using automated time-lapse microscopy. Briefly, breast cancer cell lines SK-BR-3, BT-474, HCC-202, EFM-192C, BT-483, and CAMA-1 and gastric cancer cell lines NCI-N87, OE19, and RERF-GC-1B were seeded in 96-well flat clear-bottom black tissue culture-treated microplates (Corning, cat #3603). Cells were plated at 1.5×10^4-2.5×10^4 cells/200 μL/well in growth medium and allowed to adhere overnight at 37° C. Disitamab, trastuzumab, and isotype control antibody (human IgG) were labeled with IncuCyte Fabfluor-pH Red Antibody Labeling Reagent (Essen Bioscience, cat #4722) according to the manufacturer's protocol. Volumes of the test antibodies, Fabfluor reagent and medium required were calculated at 2× the final assay concentration, and the Fabfluor reagent was added at a molar ratio of 1:3 to the antibody. Fabfluor dye fluoresces only upon exposure to an acidified compartment, namely endocytic vesicles and lysosomes, signifying internalization and intracellular processing of the ADC. Antibody and Fabfluor were mixed gently and incubated at 37° C. for 15 minutes. Media containing Fabfluor-labeled disitamab or trastuzumab ([…] final concentration) was added to cells. The plates were arranged on microplate trays in the IncuCyte SX3 system (Essen Bioscience), and scans were acquired using the Standard protocol. Phase data and red channel data (acquisition time set to 400 ms) were collected, with 4 images per well every 30 minutes for the first 6 hours and every 2 hours after that for up to 40 hours with the objective set at 10×. Quantification of fluorescence signal intensity was performed using the IncuCyte software analysis tool.

[3] = test system: HER2+ locally advanced or metastatic breast cancer (LA/mBC); conditions: subjects that progressed following taxane plus trastuzumab treatment; cited from earlier work
[4] = test system: HER2 cell surface protein levels; assay: qFACS analysis of cell-surface HER2 levels upon tucatinib treatment; assay type: cell-based, human; conditions: 100 nM tucatinib
Method: HER2 cell surface levels were determined by qFACS analysis. Briefly, cells were stained with an anti-HER2 antibody (R&D Systems, Inc.; #MAB1129) and Zombie Aqua (BioLegend, Inc.; #423101) for dead cell exclusion. Cells were fixed, and HER2 receptor copy number per cell was quantified using a QIFIKIT (Agilent Dako) per the manufacturer's protocol.
as §1

disitamab
Increased: disitamab internalization as compared to trastuzumab (HER2 [2]; BT-474) | disitamab internalization as compared to trastuzumab (HER2 [2]; BT-483) | disitamab internalization as compared to trastuzumab (HER2 [2]; CAMA-1) | disitamab internalization as compared to trastuzumab (HER2 [2]; EFM-192C) | disitamab internalization as compared to trastuzumab (HER2 [2]; HCC-202) | disitamab internalization as compared to trastuzumab (HER2 [2]; NCI-N87) | disitamab internalization as compared to trastuzumab (HER2 [2]; OE19) | disitamab internalization as compared to trastuzumab (HER2 [2]; RERF-GC-1B) | disitamab internalization as compared to trastuzumab (HER2 [2]; SK-BR-3)
increased: disitamab internalization in the presence of tucatinib compared to disitamab alone (HER2 [1]; EFM-192C) | disitamab internalization in the presence of tucatinib compared to disitamab alone (HER2 [1]; NCI-N87) | disitamab internalization in the presence of tucatinib compared to disitamab alone (HER2 [1]; OE19) | disitamab internalization in the presence of tucatinib compared to disitamab alone (HER2 [1]; SK-BR-3)

trastuzumab emtansine [T-DM1]
34.2%: overall response (either complete or partial response) [3]
34.1%: subjects alive without disease progression at 12 months [3]

Cc1cc(Nc2ncnc3ccc(NC4=NC(C)(C)CO4)cc23)ccc1Oc1ccn2ncnc2c1 [tucatinib, Tucatinib]
increase: cell-surface HER2 levels over time compared with untreated cells ([4]; BT-474) | cell-surface HER2 levels over time compared with untreated cells ([4]; BT-483) | cell-surface HER2 levels over time compared with untreated cells ([4]; CAMA-1) | cell-surface HER2 levels over time compared with untreated cells ([4]; EFM-192C) | cell-surface HER2 levels over time compared with untreated cells ([4]; HCC-202) | cell-surface HER2 levels over time compared with untreated cells ([4]; NCI-N87) | cell-surface HER2 levels over time compared with untreated cells ([4]; OE19) | cell-surface HER2 levels over time compared with untreated cells ([4]; RERF-GC-1B) | cell-surface HER2 levels over time compared with untreated cells ([4]; SK-BR-3)
